Bridge positions count the residues as written; N and C are the ends. Ends that are not written are not given here.

PSA-peptide/PSA ratio data for 18 molecules are collected here from patent US20040106557A1 (LICENTIA, published 2004).

The experiment has as its target Prostate specific antigen (PSA), purified from human seminal fluid (human, UniProt P07288 25-261). As to the kind of experiment: cell-based or functional assay.
With cyclo(HHCWTVAYCIE) (disulfide 3-9 (inferred)) [C-4-7 (cyclic with peptide bond)], the PSA-peptide/PSA ratio stood at 0.8 ratio.

Turning to CVFTSNYAFC (disulfide 1-10 (inferred)) [A-1-4 (A-1 N6)], the PSA-peptide/PSA ratio turned out to be 2.4 ratio. As for CVAFCIEHHCWTC (disulfide (positions not given here)) [C-4-2 (C-4 F4)], the PSA-peptide/PSA ratio was determined as 2.3 ratio. As to CVFAHNYDYLVC (disulfide 1-12) [chemically synthesized peptide B-2 (B-2-1, B-2 parent)], the PSA-peptide/PSA ratio was 3 ratio. Turning to CVAYCIQHHCWTC (disulfide (positions not given here)) [C-4-3 (C-4 Q7)], the PSA-peptide/PSA ratio worked out at 2.1 ratio. Take CVYTSDYAYC (disulfide 1-10 (inferred)) [A-1-5 (A-1 Y39)]: the PSA-peptide/PSA ratio was 1 ratio. Then CVAYCIEHHCATC (disulfide (positions not given here); not fully specified) [C-4-6 (C-4 A11)], with 0.9 ratio; and CVAYCIEHHCWTC (disulfide 1-13, 5-10) [chemically synthesized peptide C-4 without GA flanks (C-4-1, C4 parent)], with 2.1 ratio; and CVFTSNYNYC (disulfide 1-10 (inferred)) [A-1-3 (A-1 N6N8Y9)], with 1.9 ratio. Turning to CVFAHNYNYLVC (disulfide 1-12 (inferred)) [B-2-2 (B-2 N8)], the PSA-peptide/PSA ratio was determined as 3.1 ratio. Turning to CVAACIEHHCWTC (disulfide (positions not given here)) [C-4-5 (C-4 A4)], the PSA-peptide/PSA ratio was found to be 1 ratio.

In the case of CVAYAIQHHC (disulfide 1-10 (inferred)) [C-4-4 (C-4 10A5Q7)], the PSA-peptide/PSA ratio was 1.1 ratio. Then CVFTSDYAFC (disulfide 1-10) [chemically synthesized peptide A-1 (A-1-1, A-1 parent)], with 2.3 ratio; and CVFAHNYNYC (disulfide 1-10 (inferred)) [B-2-4 (B-2 10 N8)], with 1.9 ratio. In the case of CVFAHNYNALVC (disulfide 1-12 (inferred)) [B-2-3 (B-2 N8A9)], the PSA-peptide/PSA ratio came to 2.6 ratio.

On to CVFTSNYAYC (disulfide 1-10 (inferred)) [A-1-2 (A-1 N6Y9)], for which the PSA-peptide/PSA ratio came out at 2.3 ratio.

For the molecule CVFTSNAAYC (disulfide 1-10 (inferred)) [A-1-6 (A1 N6Y7Y9)], the PSA-peptide/PSA ratio was 1 ratio. As for CVFAHNANYLVC (disulfide 1-12 (inferred)) [B-2-5 (B-2 A7)], the PSA-peptide/PSA ratio worked out at 1.1 ratio.
